Source: PMC6487837

Test: confocal microscopy, plasma membrane localisation, HT1080 and HL-1 cells
Conditions: glycan lost; control: wild-type DSC2-eYFP

localisation_or_trafficking, no change:
Desmocollin-2 (DSC2): p.N166Q, Desmocollin-2 (DSC2): p.N392Q, Desmocollin-2 (DSC2): p.N546Q, Desmocollin-2 (DSC2): p.N629Q
